Test results reported in publication PMC3059592 (Virology, 2010).
Several values for one entry are separate records, joined by “and”; a condition that tells them apart may be missing. Equal values may be shown once.

Target: the molecule itself
Assay: sucrose density gradient centrifugation

B1: PIV-5 hemagglutinin-neuraminidase (HN) protein, mutant E37D (natural protein)
chain: MVAEDAPVRATCRVLFRTTTLIFLCTLLALSISILYDSLITQKQIMSQAGSTGSNSGLGSITDLLNNILSVANQIIYNSAVALPLQLDTLESTLLTAIKSLQTSDKLEQNCSWSAALINDNRYINGINQFYFSIAEGRNLTLGPLLNMPSFIPTATTPEGCTRIPSFSLTKTHWCYTHNVILNGCQDHVSSNQFVSMGIIEPTSAGFPFFRTLKTLYLSDGVNRKSCSISTVPGGCMMYCFVSTQPERDDYFSAAPPEQRIIIMYYNDTIVERIINPPGVLDVWATLNPGTGSGVYYLGWVLFPIYGGVIKGTSLWNNQANKYFIPQMVAALCSQNQATQVQNAKSSYYSSWFGNRMIQSGILACPLRQDLTNECLVLPFSNDQVLMGAEGRLYMYGDSVYYYQRSNSWWPMTMLYKVTITFTNGQPSAISAQNVPTQQVPRPGTGDCSATNRCPGFCLTGVYADAWLLTNPSSTSTFGSEATFTGSYLNTATQRINPTMYIANNTQIISSQQFGSSGQEAAYGHTTCFRDTGSVMVYCIYIIELSSSLLGQFQIVPFIRQVTLS
stoichiometry N: 2 and 4
